For orientation: stoichiometry N means a count of units in the complex or per binding partner.

Several values for one entry are separate records, joined by “and”; a condition that tells them apart may be missing. Equal entries are not always repeated.

The text below walks through data of paper PMC11109247 (Nature Communications, 2024).

Data set [1] concerns the molecule itself. The data set is described as follows: SDS-PAGE without reduction and boiling.
Data set [2] concerns the target T1, soluble NiVMY G ectodomain used for structural determination (residues 72-602, His tag) (Nipah virus Malaysia (NiVMY), UniProt Q9IH62).
T1 construct: source: Expi293F, transient transfection, purified
Description: cryo-EM structure. To be noted: both partners purified.

In the next data set the target is NiVBD G ectodomain (Nipah virus, Bangladesh (GenBank …, UniProt Q4VCP5, strain)). The data set is described as follows: cell-based or functional assay.
The target of another data set is NiVMY G ectodomain (Nipah virus, Malaysia (GenBank …, UniProt E2II03)). The data set is described as follows: cell-based or functional assay.
Another data set addresses HeV G ectodomain (Hendra virus (isolate …, UniProt O89343)). Description: cell-based or functional assay.

Chain of HeV G ectodomain (Hendra virus (O89343 71-604): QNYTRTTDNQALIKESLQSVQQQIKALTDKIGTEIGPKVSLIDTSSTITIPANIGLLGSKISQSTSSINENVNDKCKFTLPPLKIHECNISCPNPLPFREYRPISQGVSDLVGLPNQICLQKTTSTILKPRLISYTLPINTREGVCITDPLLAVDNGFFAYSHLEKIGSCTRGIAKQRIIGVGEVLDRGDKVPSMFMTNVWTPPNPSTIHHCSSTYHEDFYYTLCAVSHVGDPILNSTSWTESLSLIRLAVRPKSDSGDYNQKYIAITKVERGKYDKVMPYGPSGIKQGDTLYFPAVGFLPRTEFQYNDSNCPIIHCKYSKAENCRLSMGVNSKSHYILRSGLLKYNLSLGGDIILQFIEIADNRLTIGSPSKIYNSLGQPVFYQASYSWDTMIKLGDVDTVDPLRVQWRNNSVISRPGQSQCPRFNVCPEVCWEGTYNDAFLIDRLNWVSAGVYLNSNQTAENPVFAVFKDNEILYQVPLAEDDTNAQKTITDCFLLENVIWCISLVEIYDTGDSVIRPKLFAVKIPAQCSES

B1: NiVMY G ectodomain (residues 72-602), His-tagged, used for structural determination (domain or fragment)
chain: NYTRSTDNQAVIKDALQGIQQQIKGLADKIGTEIGPKVSLIDTSSTITIPANIGLLGSKISQSTASINENVNEKCKFTLPPLKIHECNISCPNPLPFREYRPQTEGVSNLVGLPNNICLQKTSNQILKPKLISYTLPVVGQSGTCITDPLLAMDEGYFAYSHLERIGSCSRGVSKQRIIGVGEVLDRGDEVPSLFMTNVWTPPNPNTVYHCSAVYNNEFYYVLCAVSTVGDPILNSTYWSGSLMMTRLAVKPKSNGGGYNQHQLALRSIEKGRYDKVMPYGPSGIKQGDTLYFPAVGFLVRTEFKYNDSNCPITKCQYSKPENCRLSMGIRPNSHYILRSGLLKYNLSDGENPKVVFIEISDQRLSIGSPSKIYDSLGQPVFYQASFSWDTMIKFGDVLTVNPLVVNWRNNTVISRPGQSQCPRFNTCPEICWEGVYNDAFLIDRINWISAGVFLDSNQTAENPVFTVFKDNEILYRAQLASEDTNAQKTITNCFLLKNKIWCISLVEIYDTGDNVIRPKLFAVKIPEQCT
Take B1: the “stoichiometry N” value in data set [1] is 4 and 2.

B2: 1E5 Fab (Fab, V domains shown)
VH: QVQLQESGPGVVKPSETLSLTCAVSGGSISDTYRWSWIRQPPGKGLEWIGYIYGSATSTYYNPSLSSRVTISKDMSKNQFSLNLNSVTAADTAVYYCARDYQYYYSGSYPTPHNWFDVWGPGVLVTVSS
VL: DIQMTQSPSSLSASVGDRVTITCRASQGIIDYLSWYQQKPGKAPKLLISTASNLESGVPSRFSGSGSGTEFTLTISSLQPEDFATYSCLQGYTTPYTFGQGTKVEIK
notes: source: Expi293F, transient transfection, purified
On to B2, for which, in data set [2], the binding result is listed as “binds”.

B3: 1E5 (antibody, V domains shown)
VH: B2 VH
VL: B2 VL
On to B3, for which the “IC50 of neutralisation of authentic NiV-BD (plaque reduction; Fig. 2o)” value with NiVBD G ectodomain amounted to 0.0125 µg/mL. The “IC50 of neutralisation of authentic NiV-MY (plaque reduction; Fig. 2o)” value with NiVMY G ectodomain was determined as 0.012 µg/mL. Moreover, the “IC50 of neutralisation of authentic HeV (plaque reduction; Fig. 2o)” value with HeV G ectodomain stood at 0.147 µg/mL.
